Data reported in US6146878.

Assays:
[1] = tested on: TyrR (Escherichia coli); experiment: cell_activity; conditions: beta-galactosidase reporter, M9 + 2 mM L-tyrosine, 37 C; 29.1 without tyrosine; indirect evidence of binding
[2] = target: T1, TyrR (tyrosine repressor) (Erwinia herbicola) (UniProt Q9ZIB7); experiment: cell_activity; conditions: beta-galactosidase reporter, M9 + 2 mM L-tyrosine, 37 C; 35.5 without tyrosine; indirect evidence of binding
T1 sequence: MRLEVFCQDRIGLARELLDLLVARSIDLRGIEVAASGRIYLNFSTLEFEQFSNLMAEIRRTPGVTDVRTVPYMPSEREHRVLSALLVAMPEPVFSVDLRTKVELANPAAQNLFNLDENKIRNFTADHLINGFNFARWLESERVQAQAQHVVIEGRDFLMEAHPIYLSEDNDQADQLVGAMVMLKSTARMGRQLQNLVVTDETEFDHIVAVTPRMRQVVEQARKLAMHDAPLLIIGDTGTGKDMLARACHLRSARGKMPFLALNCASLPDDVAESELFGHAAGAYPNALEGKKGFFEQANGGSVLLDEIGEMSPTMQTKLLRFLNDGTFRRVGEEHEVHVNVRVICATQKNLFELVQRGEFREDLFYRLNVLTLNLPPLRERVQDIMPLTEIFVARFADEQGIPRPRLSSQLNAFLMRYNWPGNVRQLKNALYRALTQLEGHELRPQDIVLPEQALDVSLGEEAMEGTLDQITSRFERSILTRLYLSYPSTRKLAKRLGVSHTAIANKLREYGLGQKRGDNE

## tpl promoter/enhancer region (about 480 bp, tpl'-'lac fusion)
[1]
  activity: 324 Miller units
[2]
  activity: 656 Miller units
